How the values were obtained:
[1] = tested on: cynomolgus monkey LAMP1 expressed transiently at the cell surface of HEK293; assay: FACS on HEK293 cells transiently transfected with cynomolgus LAMP1; type: binding; settings: transient HEK293
From the text: LAMP1 Coding DNA Sequence, RefSeq NM_005561.3 (SEQ ID NO: 23) was cloned internally. The CDS of Macaca mulatta LAMP1, RefSeq XP_001087801 (SEQ ID NO: 27) was also cloned internally. The predicted sequences of mature LAMP1 from Macaca mulatta and Macaca fascicularis are identical to 99%, said sequence differing by one additional Leucin at position 11 of Macaca mulatta (SEQ ID NO: 27), i.e. in the signal peptide. The mature LAMP1 proteins of Macaca mulatta and Macaca fascicularis are identical. Therefore the secreted LAMP1 used in the following example is referred to cynomolgus monkey. Both CDS were cloned into mammalian expression plasmids under CMV enhancer/promoter and SV40 polyA signals. HEK293 cells (Invitrogen; #K9000-10.) were transiently transfected with human LAMP1 or cynomolgus LAMP1 plasmids using FreeStyle™ MAX 293 Expression System according to the manufacturer's instructions. […] 100 μL/well of goat anti-mouse IgG conjugated with Alexa647 (Invitrogen; #A2135) was added for 45 min at 4° C. and washed three times with PBS 1% BSA. The antibody binding was evaluated after centrifugation and resuspension of cells by adding 200 μl/well PBS 1% BSA and read using Guava® easyCyte™ 8HT Flow Cytometry System. EC50 values were estimated using BIOST@T-SPEED software.

[2] = target: T1, LAMP1 in human tumoral and non-tumoral tissues (Homo sapiens, UniProt P11279); assay: IHC on frozen-OCT / AFA human tumoral and non-tumoral tissues; settings: CR-LRB-010P, human non-tumoral colon and skin
T1 construct: from tissue; host or cells: human tumoral and non-tumoral tissue sections and PDX tumour sections (frozen-OCT, AFA, FFPE)
T1 sequence (P11279 29-417): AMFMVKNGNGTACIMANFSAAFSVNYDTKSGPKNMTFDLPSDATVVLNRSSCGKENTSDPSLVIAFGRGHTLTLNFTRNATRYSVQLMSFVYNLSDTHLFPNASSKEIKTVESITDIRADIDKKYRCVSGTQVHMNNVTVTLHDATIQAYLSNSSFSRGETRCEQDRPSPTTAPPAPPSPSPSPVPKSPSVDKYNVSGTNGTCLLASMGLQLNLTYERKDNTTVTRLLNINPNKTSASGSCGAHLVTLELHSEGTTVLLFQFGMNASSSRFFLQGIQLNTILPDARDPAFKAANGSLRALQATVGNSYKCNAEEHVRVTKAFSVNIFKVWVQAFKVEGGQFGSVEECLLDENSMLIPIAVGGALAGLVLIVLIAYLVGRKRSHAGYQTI
Description: Individual hybridoma supernatants raised against tumor tissue CR-LRB-010P were screened by IHC on a macroarray slide containing frozen sections of immunizing tumor (CR-LRB-010P), human non-tumoral colon and human non-tumoral skin. Frozen-OCT (from Optimal Cutting Temperature) specimens of non-tumoral colon and skin were obtained from surgical cases (commercial sources such as Asterand, US Biomax, Strasbourg Hospital). The automated immunostaining was performed unsing Ventana Discovery and Discovery XT automated systems (Ventana Medical Systems, Inc, USA).
Frozen 10 μm cryostat sections were incubated with IgG culture supernatants as primary antibody (unknown concentration, dilution ⅓ in Phosphate Buffer Saline, PBS) for 40 min at 37° C. Culture medium was used as negative control. A postfixation step with glutaraldehyde (0.05% in NaCl 0.9% w/v) for 4 min was done. The secondary antibody Affinipure rabbit anti-mouse IgG (315-005_008, Jackson Immunosearch Laboratories, Inc. USA) was used at 4.8 μg/mL and incubated for 12 min at 37° C. Immunostaining was done with UltraMap Red chromogenic detection kit according to manufacturers recommendations for 8 min. Cryostat sections were subsequently couterstaining with hematoxylin II (790-2208, Ventana Medical Systems, Inc USA) and bluing for 4 min (760-2037). […]
Sections immunostained with mAbs were analyzed by microscope (Nikon Eclipse E400). […]

Chain of cynomolgus monkey LAMP1 expressed transiently at the cell surface of HEK293 (as listed by the source): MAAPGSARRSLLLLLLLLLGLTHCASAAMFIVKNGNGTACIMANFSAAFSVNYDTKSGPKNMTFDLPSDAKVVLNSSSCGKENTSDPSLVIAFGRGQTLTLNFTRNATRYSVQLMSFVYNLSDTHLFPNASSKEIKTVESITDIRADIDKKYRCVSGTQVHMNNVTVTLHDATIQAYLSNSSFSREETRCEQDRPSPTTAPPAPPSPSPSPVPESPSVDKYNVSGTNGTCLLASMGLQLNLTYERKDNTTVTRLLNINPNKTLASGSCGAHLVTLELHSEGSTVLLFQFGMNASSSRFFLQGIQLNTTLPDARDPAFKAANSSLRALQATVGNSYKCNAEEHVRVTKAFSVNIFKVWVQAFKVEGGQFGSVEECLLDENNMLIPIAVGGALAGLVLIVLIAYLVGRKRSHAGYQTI

B1: MAb1: murine monoclonal anti-LAMP1 antibody, VH SEQ ID NO: 1, VL SEQ ID NO: 5 (antibody, V domains shown)
VH: QVQLQQSGAELVKPGASVKMSCKASGYIFTNYNIHWVKKSPGQGLEWIGAIYPGNGDAPYSQKFKDKATLTADKSSSTTYMQLSRLTSEDSAVYYCVRANWDVAFAYWGQGTLVSVSA
VL: DIQMTQSPPSLSASLGGKVTITCKASQDIDRYMAWYQDKPGKGPRLLIHDTSTLQPGIPSRFSGSGSGRDYSFSISNLEPEDIATYYCLQYDNLWTFGGGTKLEIK
modifications: Antibody Fragment; antibody fragment
- EC50 [1]: 44 nM
- IHC reactivity on frozen sections [2]: showed evidence of tumor-associated reactivity
